# In patent publication US20160303225A1 (HENRY M JACKSON FOUNDATION FOR THE ADVANCEMENT OF MILITARY …, published 2016):
# Biological target: T1, modified HCMV gB (homotrimeric complex of modified human cytomegalovirus glycoprotein B) (human cytomegalovirus (HCMV), UniProt F5HB53 25-750)
# T1 construct: It runs as a 360 kDa homotrimer under native or partially reducing conditions and as a 120 kDa monomer under fully reducing or denaturing conditions; also called trimeric HCMV gB; HCMV trimeric gB
# Assay: purified proteins mixed 1:1 (molecular ratio) and incubated at room temperature for 2 hours; Western blot under non-reducing conditions
binder,measurement,value
"HCMV gH/gL fusion protein (other, It was expressed in CHO DG44 cells; also called monomeric gH/gL; gH/gL heterodimer) DATVSVAPTVAEKVPAECPELTRRCLLGEVFQGDKYESWLRPLVNVTRRDGPLSQLIRYRPVTPEAANSVLLDDAFLDTLALLYNNPDQLRALLTLLSSDTAPRWMTVMRGYSECGDGSPAVYTCVDDLCRGYDLTRLSYGRSIFTEHVLGFELVPPSLFNVVVAIRNEATRTNRAVRLPVSTAAAPEGITLFYGLYNAVKEFCLRHQLDPPLLRHLDKYYAGLPPELKQTRVNLPAHSRYGPQAVDARGGGGSGGGGSGGGGSYGAEAISEPLDKAFHLLLNTYGRPIRFLRENTTQCTYNSSLRNSTVVRENAISFNFFQSYNQYYVFHMPRCLFAGPLAEQFLNQVDLTETLERYQQRLNTYALVSKDLASYRSFSQQLKAQDSLGEQPTTVPPPIDLSIPHVWMPPQTTPHGWTESHTTSGLHRPHFNQTCILFDGHDLLFSTVTPCLHQGFYLIDELRYVKITLTEDFFVVTVSIDDDTPMLLIFGHLPRVLFKAPYQRDNFILRQTEKHELLVLVKKDQLNRHSYLKDPDFLDAALDFNYLDLSALLRNSFHRYAVDVLKSGRCQMLDRRTVEMAFAYALALFAAARQEEAGAQVSVPRALDRQAALLQIQEFMITCLSQTPPRTTLLLYPTAVDLAKRALWTPNQITDITSLVRLVYILSKQNQQHLIPQWALRQIADFALKLHKTHLASFLSAFARQELYLMGSLVHSMLVHTTERREIFIVETGLCSLAELSHFTQLLAHPHHEYLSDLYTPCSSSGRRDHSLERLTRLFPDATVPTTVPAALSILSTMQPSTLETFPDLFCLPLGESFSALTVSEHVSYVVTNQYLIKGISYPVSTTVVGQSLIITQTDSQTKCELTRNMHTTHSITAALNISLENCAFCQSALLEYDDTQGVINIMYMHDSDDVLFALDPYNEVVVSSPRTHYLMLLKNGTVLEVTDVVVDATDSRLHHHHHH",binding result,binds
